Test results published in publication PMC3566775.

Molecular target: Mouse SR-BI CGG mutant (positions 321-323) (mouse) (UniProt Q61009)
Assay: radioligand binding

Work on “Human high density lipoprotein (HDL), labeled with 125I (complex)” yielded a reduction in binding compared to the WT receptor of 20%.
